We go through twelve variants from IntAct's records for PubMed 31515488.

To fix the notation:
B1: Germ cell-less protein-like 1 (Homo sapiens), Q96IK5 (parent)
chain: MGSLSSRVLRQPRPALAQQAQGARAGGSARRPDTGDDAAGHGFCYCAGSHKRKRSSGSFCYCHPDSETDEDEEEGDEQQRLLNTPRRKKLKSTSKYIYQTLFLNGENSDIKICALGEEWSLHKIYLCQSGYFSSMFSGSWKESSMNIIELEIPDQNIDVEALQVAFGSLYRDDVLIKPSRVVAILAAACLLQLDGLIQQCGETMKETVNVKTVCGYYTSAGTYGLDSVKKKCLEWLLNNLMTHQNVELFKELSINVMKQLIGSSNLFVMQVEMDIYTALKKWMFLQLVPSWNGSLKQLLTETDVWFSKQRKDFEGMAFLETEQGKPFVSVFRHLRLQYIISDLASARIIEQDAVVPSEWLSSVYKQQWFAMLRAEQDSEVGPQEINKEELEGNSMRCGRKLAKDGEYCWRWTGFNFGFDLLVTYTNRYIIFKRNTLNQPCSGSVSLQPRRSIAFRLRLASFDSSGKLICSRTTGYQILTLEKDQEQVVMNLDSRLLIFPLYICCNFLYISPEKKN
partner: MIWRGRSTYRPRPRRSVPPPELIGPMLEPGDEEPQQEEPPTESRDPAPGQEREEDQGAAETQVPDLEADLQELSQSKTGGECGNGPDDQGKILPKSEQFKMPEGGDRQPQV
B2: Pre-B-cell leukemia transcription factor 4 (Homo sapiens), Q9BYU1 (parent)
chain: MAAPPRPAPSPPAPRRLDTSDVLQQIMAITDQSLDEAQARKHALNCHRMKPALFSVLCEIKEKTVVSIRGIQDEDPPDAQLLRLDNMLLAEGVCRPEKRGRGGAVARAGTATPGGCPNDNSIEHSDYRAKLSQIRQIYHSELEKYEQACREFTTHVTNLLQEQSRMRPVSPKEIERMVGAIHGKFSAIQMQLKQSTCEAVMTLRSRLLDARRKRRNFSKQATEVLNEYFYSHLNNPYPSEEAKEELARKGGLTISQVSNWFGNKRIRYKKNMGKFQEEATIYTGKTAVDTTEVGVPGNHASCLSTPSSGSSGPFPLPSAGDAFLTLRTLASLQPPPGGGCLQSQAQGSWQGATPQPATASPAGDPGSINSSTSN
partner: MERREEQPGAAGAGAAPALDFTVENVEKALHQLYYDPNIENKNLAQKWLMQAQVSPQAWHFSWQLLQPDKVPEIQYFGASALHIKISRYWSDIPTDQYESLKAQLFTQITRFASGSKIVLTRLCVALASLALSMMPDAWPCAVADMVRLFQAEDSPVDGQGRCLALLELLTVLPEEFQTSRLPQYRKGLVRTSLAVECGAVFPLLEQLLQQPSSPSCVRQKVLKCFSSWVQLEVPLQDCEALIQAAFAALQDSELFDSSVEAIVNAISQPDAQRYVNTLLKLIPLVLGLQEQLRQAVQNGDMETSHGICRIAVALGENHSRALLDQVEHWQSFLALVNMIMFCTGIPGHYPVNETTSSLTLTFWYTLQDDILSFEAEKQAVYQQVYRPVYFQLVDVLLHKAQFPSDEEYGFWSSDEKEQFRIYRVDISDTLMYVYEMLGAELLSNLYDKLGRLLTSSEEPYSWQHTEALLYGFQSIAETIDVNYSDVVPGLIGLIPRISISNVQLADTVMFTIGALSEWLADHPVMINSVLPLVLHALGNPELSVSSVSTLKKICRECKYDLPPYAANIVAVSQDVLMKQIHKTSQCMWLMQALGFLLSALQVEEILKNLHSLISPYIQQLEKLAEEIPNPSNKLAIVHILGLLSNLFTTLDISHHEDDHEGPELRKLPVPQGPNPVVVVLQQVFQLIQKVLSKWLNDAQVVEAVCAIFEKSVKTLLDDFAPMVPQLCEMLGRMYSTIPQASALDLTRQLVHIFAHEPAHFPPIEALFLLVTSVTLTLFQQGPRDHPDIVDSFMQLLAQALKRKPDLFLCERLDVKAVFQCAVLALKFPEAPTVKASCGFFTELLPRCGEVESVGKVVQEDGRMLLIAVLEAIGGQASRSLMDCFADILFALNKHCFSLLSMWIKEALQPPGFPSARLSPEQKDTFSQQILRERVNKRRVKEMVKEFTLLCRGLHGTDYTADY
B3: Phosphatidylserine lipase ABHD16A (Homo sapiens), O95870 (parent)
chain: MAKLLSCVLGPRLYKIYRERDSERAPASVPETPTAVTAPHSSSWDTYYQPRALEKHADSILALASVFWSISYYSSPFAFFYLYRKGYLSLSKVVPFSHYAGTLLLLLAGVACLRGIGRWTNPQYRQFITILEATHRNQSSENKRQLANYNFDFRSWPVDFHWEEPSSRKESRGGPSRRGVALLRPEPLHRGTADTLLNRVKKLPCQITSYLVAHTLGRRMLYPGSVYLLQKALMPVLLQGQARLVEECNGRRAKLLACDGNEIDTMFVDRRGTAEPQGQKLVICCEGNAGFYEVGCVSTPLEAGYSVLGWNHPGFAGSTGVPFPQNEANAMDVVVQFAIHRLGFQPQDIIIYAWSIGGFTATWAAMSYPDVSAMILDASFDDLVPLALKVMPDSWRGLVTRTVRQHLNLNNAEQLCRYQGPVLLIRRTKDEIITTTVPEDIMSNRGNDLLLKLLQHRYPRVMAEEGLRVVRQWLEASSQLEEASIYSRWEVEEDWCLSVLRSYQAEHGPDFPWSVGEDMSADGRRQLALFLARKHLHNFEATHCTPLPAQNFQMPWHL
partner: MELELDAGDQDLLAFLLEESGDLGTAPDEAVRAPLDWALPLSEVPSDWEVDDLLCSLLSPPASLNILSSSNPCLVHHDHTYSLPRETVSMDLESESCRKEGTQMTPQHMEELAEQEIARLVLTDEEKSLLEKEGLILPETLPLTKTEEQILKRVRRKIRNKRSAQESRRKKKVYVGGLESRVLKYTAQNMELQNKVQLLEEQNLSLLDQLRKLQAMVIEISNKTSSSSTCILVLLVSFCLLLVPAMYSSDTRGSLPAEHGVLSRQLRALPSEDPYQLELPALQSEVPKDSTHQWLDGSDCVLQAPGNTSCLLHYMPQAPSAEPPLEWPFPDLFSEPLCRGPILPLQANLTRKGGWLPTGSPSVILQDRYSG
B4: SKA complex subunit 1 (Homo sapiens), Q96BD8 (parent)
chain: MASSDLEQLCSHVNEKIGNIKKTLSLRNCGQEPTLKTVLNKIGDEIIVINELLNKLELEIQYQEQTNNSLKELCESLEEDYKDIEHLKENVPSHLPQVTVTQSCVKGSDLDPEEPIKVEEPEPVKKPPKEQRSIKEMPFITCDEFNGVPSYMKSRLTYNQINDVIKEINKAVISKYKILHQPKKSMNSVTRNLYHRFIDEETKDTKGRYFIVEADIKEFTTLKADKKFHVLLNILRHCRRLSEVRGGGLTRYVIT
partner: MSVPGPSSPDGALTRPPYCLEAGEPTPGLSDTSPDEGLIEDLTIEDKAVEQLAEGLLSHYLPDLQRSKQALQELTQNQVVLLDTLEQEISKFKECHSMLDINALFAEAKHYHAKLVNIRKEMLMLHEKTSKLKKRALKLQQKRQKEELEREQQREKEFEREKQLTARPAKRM
B5: NF-kappa-B inhibitor delta (Homo sapiens), Q8NI38 (parent)
chain: MEAGPWRVSAPPSGPPQFPAVVPGPSLEVARAHMLALGPQQLLAQDEEGDTLLHLFAARGLRWAAYAAAEVLQVYRRLDIREHKGKTPLLVAAAANQPLIVEDLLNLGAEPNAADHQGRSVLHVAATYGLPGVLLAVLNSGVQVDLEARDFEGLTPLHTAILALNVAMRPSDLCPRVLSTQARDRLDCVHMLLQMGANHTSQEIKSNKTVLHLAVQAANPTLVQLLLELPRGDLRTFVNMKAHGNTALHMAAALPPGPAQEAIVRHLLAAGADPTLRNLENEQPVHLLRPGPGPEGLRQLLKRSRVAPPGLSS
partner: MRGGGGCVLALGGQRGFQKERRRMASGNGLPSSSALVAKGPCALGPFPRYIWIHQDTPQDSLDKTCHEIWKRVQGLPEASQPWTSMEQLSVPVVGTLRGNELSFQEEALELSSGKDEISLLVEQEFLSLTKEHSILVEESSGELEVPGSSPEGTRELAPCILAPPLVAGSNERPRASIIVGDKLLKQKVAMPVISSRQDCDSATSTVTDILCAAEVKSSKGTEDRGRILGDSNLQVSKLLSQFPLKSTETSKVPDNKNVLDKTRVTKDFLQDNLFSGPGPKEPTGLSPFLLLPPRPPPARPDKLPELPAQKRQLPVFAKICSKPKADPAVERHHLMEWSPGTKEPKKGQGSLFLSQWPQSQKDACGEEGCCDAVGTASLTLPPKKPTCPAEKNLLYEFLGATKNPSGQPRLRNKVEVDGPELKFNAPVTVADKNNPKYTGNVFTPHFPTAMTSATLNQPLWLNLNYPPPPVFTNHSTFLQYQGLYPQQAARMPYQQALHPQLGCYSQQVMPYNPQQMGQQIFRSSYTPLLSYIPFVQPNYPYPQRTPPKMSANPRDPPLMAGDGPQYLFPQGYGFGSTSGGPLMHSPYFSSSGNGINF

The variants in one assay derive from B1. The conditions noted are these: with xage3_human XAGE3, Q8WTP9.
As to Y61S, the “effect of a mutation on the interaction” value is “with no effect”.

Take I147V: the “effect of a mutation on the interaction” value is listed as “with no effect”.

R457H: the “effect of a mutation on the interaction” value is given as “with no effect”.

In the case of K281Q, the “effect of a mutation on the interaction” value is on record as “with no effect”.

Take R449Q: the “effect of a mutation on the interaction” value is “with no effect”.

In another assay the parent is B2. The conditions noted are these: with ipo13_human IPO13, O94829.
As for T283M, the “effect of a mutation on the interaction” value is “with no effect”.

Consider T154M, for which the “effect of a mutation on the interaction” value is “with no effect”.

Turning to R327Q, the “effect of a mutation on the interaction” value is given as “with no effect”.

The variants in a further assay derive from B3. The conditions noted are these: with creb3_human CREB3, O43889.
Consider R184L, for which the “effect of a mutation on the interaction” value was “with no effect”.

In the next assay the parent is B4. The conditions noted are these: with bl1s6_human BLOC1S6, Q9UL45.
In the case of H86R, the “effect of a mutation on the interaction” value was “with no effect”.

Take V230M: the “effect of a mutation on the interaction” value was “with no effect”.

The variants in a further assay derive from B5. Particulars: with ca094_human C1orf94, Q6P1W5.
Turning to V29A, the “effect of a mutation on the interaction” value was “with no effect”.
